According to patent US5985836A, “Alpha-1 proteinase inhibitor binding peptides” (Bayer Corporation, priority 1998, dated 1999):
Ends that are not written are not given here.

Experiments:
A1PI [1] = molecular target: T1, A1PI (Homo sapiens, UniProt P01009); assay: Purification of A1PI from Effluent II+III on peptide column, A1PI mass balance; type: binding; conditions: A1PI, 1 ml Eff. II+III, 4° C.
T1 construct: Human plasma is currently the only approved source of therapeutic AlPI
Summary of the method: (§1)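 Mass balance per protein was determined over the load and each step eluate (1M NaCl, 3M NaCl, 2% acetic acid) of peptide columns challenged with 1 ml Effluent II+III. The feed contained 20% ethanol and 20-25 mg/ml hSA, the flow was 865 μl/min after a 10 min residence, and the temperature was 4° C.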

Immunoglobulin G (IgG) = assay: Purification from Effluent II+III, IgG mass balance; type: binding, human; conditions: 1 ml Eff. II+III, 4° C.
Summary of the method: as §1

A1PI [2] = molecular target: T1, A1PI; assay: A1PI yield from dialyzed (aqueous) Effluent II+III; type: binding; conditions: 4° C.
Method: Effluent II+III was dialyzed against equilibration buffer at 4° C. to remove the ethanol using a 15,000 molecular weight cut-off membrane. Nephelometry of the Eff. […] A portion of the identified sequences were assayed under the same conditions applied for neat Eff. II+III at 4° C. […] II+III compared to the neat, ethanol-containing feed. The binding strength differed for the aqueous feed as more AlPI eluted in 1M NaCl for the aqueous feed. The AlPI eluted in the 1M NaCl fractions was not as enriched as that eluted in the acid eluates.

[3] = molecular target: T2, apolipoprotein alpha-1 (Apo A-1) (Homo sapiens, UniProt P02647); assay: Purification from Effluent II+III, Apo A-1 mass balance; type: binding; conditions: 1 ml Eff. II+III, 4° C.
T2 construct: Eff; II+III is a process intermediate in the Cohn plasma fractionation process; tissue Bayer Corporation (Clayton, N.C.); host or cells: plasma fraction: Cohn Effluent II+III
T2 sequence (P02647 19-267): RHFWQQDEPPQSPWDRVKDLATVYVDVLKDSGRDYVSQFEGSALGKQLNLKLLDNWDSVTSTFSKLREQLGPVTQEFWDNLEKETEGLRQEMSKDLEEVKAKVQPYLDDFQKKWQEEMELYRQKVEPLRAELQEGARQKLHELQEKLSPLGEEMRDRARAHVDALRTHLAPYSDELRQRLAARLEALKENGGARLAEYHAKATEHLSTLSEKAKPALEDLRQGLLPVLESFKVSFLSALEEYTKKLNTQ
Summary of the method: as §1

A1PI [4] = molecular target: T1, A1PI; assay: A1PI binding on peptide-resin column, injection of 1 mg A1PI in equilibration buffer; conditions: 1 mg A1PI in equilibration buffer
Summary of the method: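 Peptides synthesized on A-Totda-Toyopearl chelate resin (0.1 mmole/g) packed in 0.4×5 cm columns; 1 mg A1PI injected in equilibration buffer at 4 °C or 20 °C, 865 or 523 μl/min. Flowthrough, 1M/3M NaCl washes and 2% acetic acid eluate quantified by A280 or immunonephelometry as percent of total eluted.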

A1PI [5] = molecular target: T1, A1PI; assay: Capture and elution of active A1PI with 2M urea buffer (elastase inhibition activity assay and immunonephelometry); type: binding; conditions: 4° C.
Immunoglobulin A (IgA) = assay: Purification from Effluent II+III, IgA mass balance; type: binding, human; conditions: 1 ml Eff. II+III, 4° C.
Summary of the method: as §1

A1PI [6] = molecular target: T1, A1PI; assay: A1PI purification from 5 mg hSA + 1 mg A1PI on peptide column, A1PI mass balance; type: binding; conditions: A1PI, 5 mg hSA + 1 mg A1PI; for Percent Eluted by Fraction, 1M NaCl / Percent Eluted by Fraction, 2% Ac. Acid / Percent Eluted by Fraction, 3M NaCl / Percent Eluted by Fraction, Flow: relative to total eluted
Summary of the method: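 Peptides on A-Totda-Toyopearl resin (0.1 mmole/g) in 0.4×5 cm columns; 5 mg hSA + 1 mg A1PI loaded at 4 °C or 20 °C with 10 min residence (17 μl/min). Steps of 1M and 3M NaCl, then 2% acetic acid; fractions quantified by immunonephelometry for mass balance.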

[7] = * as in Tables 4, 5 (below detection limit)
[8] = 1 ml dialyzed Eff. II+III (ethanol removed)
[9] = A1PI, 1 ml dialyzed Eff. II+III
[10] = 20° C., * Below detection limit

T1 sequence (P01009 25-418): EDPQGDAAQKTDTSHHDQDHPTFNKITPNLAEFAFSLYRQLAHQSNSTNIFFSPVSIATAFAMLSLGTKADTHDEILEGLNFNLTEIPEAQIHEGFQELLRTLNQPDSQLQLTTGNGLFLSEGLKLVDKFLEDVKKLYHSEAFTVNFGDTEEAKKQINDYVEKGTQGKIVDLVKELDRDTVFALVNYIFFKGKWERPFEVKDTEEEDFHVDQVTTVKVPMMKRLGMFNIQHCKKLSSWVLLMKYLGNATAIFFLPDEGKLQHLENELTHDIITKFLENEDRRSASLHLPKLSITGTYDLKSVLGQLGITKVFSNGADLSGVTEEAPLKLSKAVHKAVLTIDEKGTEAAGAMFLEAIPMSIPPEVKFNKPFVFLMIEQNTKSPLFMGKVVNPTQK

RYRIFI
Percent Eluted by Fraction, 1M NaCl (A1PI [1]): 9%
Percent Eluted by Fraction, 2% Acetic Acid (A1PI [1]): 66%
Percent Eluted by Fraction, 3M NaCl (A1PI [1]): 0%
Percent Eluted by Fraction, Flow (A1PI [1]): 25%
Mass Protein per Eluate Fraction, 1M NaCl (A1PI [1]; [7]): 0.07 mg
Mass Protein per Eluate Fraction, 2% Acetic Acid (A1PI [1]; [7]): 0.50 mg
Mass Protein per Eluate Fraction, Flow (A1PI [1]; [7]): 0.19 mg
Percent Eluted by Fraction, 1M NaCl (Immunoglobulin G (IgG)): 0%
Percent Eluted by Fraction, 2% Acetic Acid (Immunoglobulin G (IgG)): 0%
Percent Eluted by Fraction, 3M NaCl (Immunoglobulin G (IgG)): 0%
Percent Eluted by Fraction, Flow (Immunoglobulin G (IgG)): 100%
Mass Protein per Eluate Fraction, Flow (Immunoglobulin G (IgG); [7]): 0.24 mg
Mass A1PI per Eluate Fraction, 1M NaCl (A1PI [2]; [8]): 0.15 mg
Mass A1PI per Eluate Fraction, 2% Acetic Acid (A1PI [2]; [8]): 0.25 mg
Mass A1PI per Eluate Fraction, Flowthrough (A1PI [2]; [8]): 0.21 mg
Percent Eluted by Fraction, 1M NaCl (A1PI [2]; [9]): 24%
Percent Eluted by Fraction, 2% Acetic Acid (A1PI [2]; [9]): 41%
Percent Eluted by Fraction, Flowthrough (A1PI [2]; [9]): 35%
Percent Eluted by Fraction, 1M NaCl [3]: 0%
Percent Eluted by Fraction, 2% Acetic Acid [3]: 100%
Percent Eluted by Fraction, 3M NaCl [3]: 0%
Percent Eluted by Fraction, Flow [3]: 0%
Mass Protein per Eluate Fraction, 2% Acetic Acid [3, 7]: 0.39 mg
Percent A1PI Eluted by Fraction Based on Absorbance at 280 nm, 1M NaCl (A1PI [4]; 4° C.): 40%
Percent A1PI Eluted by Fraction Based on Absorbance at 280 nm, 2% Acetic Acid (A1PI [4]; 4° C.): 60%
Percent A1PI Eluted by Fraction Based on Absorbance at 280 nm, Flowthrough (A1PI [4]; 4° C.): 0%
Percent A1PI Eluted by Fraction, 1M NaCl (A1PI [4]; 20° C.): 35%
Percent A1PI Eluted by Fraction, 2% Acetic Acid (A1PI [4]; 20° C.): 65%
Percent A1PI Eluted by Fraction, Flowthrough (A1PI [4]; 20° C.): 0%
Mass A1PI in Urea Eluate (mg), Activity (A1PI [5]; 1 mg A1PI, eluted with 2M urea, pH 6, elastase inhibition activity assay): 0.67 mg
Mass A1PI in Urea Eluate (mg), Nephelometry (A1PI [5]; 1 mg A1PI, eluted with 2M urea, pH 6, immunonephelometry): 0.79 mg
Specific Activity (A1PI [5]; mass of A1PI by activity assay relative to immunonephelometry, urea eluate): 0.86 mg/mg
Percent Eluted by Fraction, 1M NaCl (Immunoglobulin A (IgA)): 17%
Percent Eluted by Fraction, 2% Acetic Acid (Immunoglobulin A (IgA)): 60%
Percent Eluted by Fraction, 3M NaCl (Immunoglobulin A (IgA)): 0%
Percent Eluted by Fraction, Flow (Immunoglobulin A (IgA)): 22%
Mass Protein per Eluate Fraction, 1M NaCl (Immunoglobulin A (IgA); [7]): 0.06 mg
Mass Protein per Eluate Fraction, 2% Acetic Acid (Immunoglobulin A (IgA); [7]): 0.23 mg
Mass Protein per Eluate Fraction, Flow (Immunoglobulin A (IgA); [7]): 0.08 mg
Mass Protein per Eluate Fraction, 1M NaCl (A1PI [6]; 4° C., * Below detection limit): 0.27 mg
Mass Protein per Eluate Fraction, 2% Ac. Acid (A1PI [6]; 4° C., * Below detection limit): 0.71 mg
Percent Eluted by Fraction, 1M NaCl (A1PI [6]; 4° C.): 28%
Percent Eluted by Fraction, 2% Ac. Acid (A1PI [6]; 4° C.): 72%
Percent Eluted by Fraction, 3M NaCl (A1PI [6]; 4° C.): 0%
Percent Eluted by Fraction, Flow (A1PI [6]; 4° C.): 0%
Mass Protein per Eluate Fraction, 1M NaCl (A1PI [6]; [10]): 0.21 mg
Mass Protein per Eluate Fraction, 2% Ac. Acid (A1PI [6]; [10]): 0.50 mg
Mass Protein per Eluate Fraction, Flow (A1PI [6]; [10]): 0.22 mg
Percent Eluted by Fraction, 1M NaCl (A1PI [6]; 20° C.): 23%
Percent Eluted by Fraction, 2% Ac. Acid (A1PI [6]; 20° C.): 53%
Percent Eluted by Fraction, 3M NaCl (A1PI [6]; 20° C.): 0%
Percent Eluted by Fraction, Flow (A1PI [6]; 20° C.): 24%
